Test results: US20150203577A1 (Chugai, published 2015)

Key:
mouse FcγRIII = biological target: T1, mouse FcγRIII (mouse, UniProt P08508 31-215); assay: SPR (Biacore), antibody captured on Protein L, mFcγR as analyte
T1 construct: also called mFcγRIII; mFcgRIII
T1 chain: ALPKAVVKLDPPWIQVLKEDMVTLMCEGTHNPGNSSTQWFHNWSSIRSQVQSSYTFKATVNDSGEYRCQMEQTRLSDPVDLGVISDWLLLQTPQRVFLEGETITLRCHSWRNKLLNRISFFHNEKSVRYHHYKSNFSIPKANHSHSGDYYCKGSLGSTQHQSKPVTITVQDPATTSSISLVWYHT

mouse FcγRII = biological target: T2, mouse FcγRII (mouse, UniProt P08101 30-210); assay: as above
T2 construct: also called mFcγRII; mFcgRII
T2 sequence: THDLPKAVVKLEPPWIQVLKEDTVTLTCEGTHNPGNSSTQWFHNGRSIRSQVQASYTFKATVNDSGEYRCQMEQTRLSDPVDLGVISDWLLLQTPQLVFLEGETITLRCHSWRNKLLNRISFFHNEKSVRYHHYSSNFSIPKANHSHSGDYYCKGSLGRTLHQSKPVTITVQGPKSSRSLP

B1: H237-MB752/MRAL-k0 (antibody, mouse IgG1, kappa)
heavy: QVQLQESGPGLVKPSETLSLTCAVSGHSISHDHAWSWVRQPPGEGLEWIGFISYSGITNYNPSLQGRVTISRDNSKNTLYLQMNSLRAEDTAVYYCARSLARTTAMDYWGEGTLVTVSSAKTTPPSVYPLAPGSAAQTNSMVTLGCLVKGYFPEPVTVTWNSGSLSSGVHTFPAVLQSDLYTLSSSVTVPSSTWPSETVTCNVAHPASSTKVDKKIVPRDCGCKPCICEPNEVELVFIFPPKPKDVLTITLTPKVTCVVVDISKDDPEVQFSWFVDDVEVHTAQTQPREEQFNLTFRSVSELPIMHQDWLNGKEFKCRVNSAAFPAPIEKTISKTKGRPKAPQVYTIPPPKEQMAKDKVSLTCMITDFFPEDITVEWQWNGQPAENYKNTQPIMDTDGSYFVYSKLNVQKSNWEAGNTFTCSVLHEGLHNHHTEKSLSHSPGK
light: not shown
notes: mouse IgG1 CH variant; copies: 2 + 2
Kd (mouse FcγRIII): 3280 nM
relative mFcγRIII-binding activity (mIgG1 = 1) (mouse FcγRIII): 0.11 fold
Kd (mouse FcγRII): 35.1 nM
relative mFcγRII-binding activity (mIgG1 = 1) (mouse FcγRII): 5.24 fold

B2: H237-MB767/MRAL-k0 (antibody, mouse IgG1, kappa)
heavy: QVQLQESGPGLVKPSETLSLTCAVSGHSISHDHAWSWVRQPPGEGLEWIGFISYSGITNYNPSLQGRVTISRDNSKNTLYLQMNSLRAEDTAVYYCARSLARTTAMDYWGEGTLVTVSSAKTTPPSVYPLAPGSAAQTNSMVTLGCLVKGYFPEPVTVTWNSGSLSSGVHTFPAVLQSDLYTLSSSVTVPSSTWPSETVTCNVAHPASSTKVDKKIVPRDCGCKPCICEPNEVELVFIFPPKPKDVLTITLTPKVTCVVVDISKDDPEVQFSWFVDDVEVHTAQTQPREEQFNSTFRSVSELPIMHQDWLNGKEFKCRVNSAAFPGPIEKTISKTKGRPKAPQVYTIPPPKEQMAKDKVSLTCMITDFFPEDITVEWQWNGQPAENYKNTQPIMDTDGSYFVYSKLNVQKSNWEAGNTFTCSVLHEGLHNHHTEKSLSHSPGK
light: not shown
notes: as for B1
Kd (mouse FcγRIII): 8790 nM
relative mFcγRIII-binding activity (mIgG1 = 1) (mouse FcγRIII): 0.04 fold
Kd (mouse FcγRII): 117 nM
relative mFcγRII-binding activity (mIgG1 = 1) (mouse FcγRII): 2.1 fold

B3: H237-MB755/MRAL-k0 (antibody, mouse IgG1, kappa)
heavy: QVQLQESGPGLVKPSETLSLTCAVSGHSISHDHAWSWVRQPPGEGLEWIGFISYSGITNYNPSLQGRVTISRDNSKNTLYLQMNSLRAEDTAVYYCARSLARTTAMDYWGEGTLVTVSSAKTTPPSVYPLAPGSAAQTNSMVTLGCLVKGYFPEPVTVTWNSGSLSSGVHTFPAVLQSDLYTLSSSVTVPSSTWPSETVTCNVAHPASSTKVDKKIVPRDCGCKPCICEPNEVELVFIFPPKPKDVLTITLTPKVTCVVVDISKDDPEVQFSWFVDDVEVHTAQTQPREEQFNLTFRSVSELPIMHQDWLNGKEFKCRVDSAAFPAPIEKTISKTKGRPKAPQVYTIPPPKEQMAKDKVSLTCMITDFFPEDITVEWQWNGQPAENYKNTQPIMDTDGSYFVYSKLNVQKSNWEAGNTFTCSVLHEGLHNHHTEKSLSHSPGK
light: not shown
notes: as for B1
Kd (mouse FcγRIII): 2500 nM
relative mFcγRIII-binding activity (mIgG1 = 1) (mouse FcγRIII): 0.15 fold
Kd (mouse FcγRII): 27.8 nM
relative mFcγRII-binding activity (mIgG1 = 1) (mouse FcγRII): 6.62 fold

B4: H237-MB765/MRAL-k0 (antibody, mouse IgG1, kappa)
heavy: QVQLQESGPGLVKPSETLSLTCAVSGHSISHDHAWSWVRQPPGEGLEWIGFISYSGITNYNPSLQGRVTISRDNSKNTLYLQMNSLRAEDTAVYYCARSLARTTAMDYWGEGTLVTVSSAKTTPPSVYPLAPGSAAQTNSMVTLGCLVKGYFPEPVTVTWNSGSLSSGVHTFPAVLQSDLYTLSSSVTVPSSTWPSETVTCNVAHPASSTKVDKKIVPRDCGCKPCICEPNEVELVFIFPPKPKDVLTITLTPKVTCVVVDISKDDPEVQFSWFVDDVEVHTAQTQPREEQFNSTFRSVSELPIMHQDWLNGKEFKCRVLSAAFPAPIEKTISKTKGRPKAPQVYTIPPPKEQMAKDKVSLTCMITDFFPEDITVEWQWNGQPAENYKNTQPIMDTDGSYFVYSKLNVQKSNWEAGNTFTCSVLHEGLHNHHTEKSLSHSPGK
light: not shown
notes: as for B1
Kd (mouse FcγRIII): 2560 nM
relative mFcγRIII-binding activity (mIgG1 = 1) (mouse FcγRIII): 0.15 fold
Kd (mouse FcγRII): 39.6 nM
relative mFcγRII-binding activity (mIgG1 = 1) (mouse FcγRII): 6.23 fold

B5: H237-MB753/MRAL-k0 (antibody, mouse IgG1, kappa)
heavy: QVQLQESGPGLVKPSETLSLTCAVSGHSISHDHAWSWVRQPPGEGLEWIGFISYSGITNYNPSLQGRVTISRDNSKNTLYLQMNSLRAEDTAVYYCARSLARTTAMDYWGEGTLVTVSSAKTTPPSVYPLAPGSAAQTNSMVTLGCLVKGYFPEPVTVTWNSGSLSSGVHTFPAVLQSDLYTLSSSVTVPSSTWPSETVTCNVAHPASSTKVDKKIVPRDCGCKPCICEPNEVELVFIFPPKPKDVLTITLTPKVTCVVVDISKDDPEVQFSWFVDDVEVHTAQTQPREEQFNMTFRSVSELPIMHQDWLNGKEFKCRVNSAAFPAPIEKTISKTKGRPKAPQVYTIPPPKEQMAKDKVSLTCMITDFFPEDITVEWQWNGQPAENYKNTQPIMDTDGSYFVYSKLNVQKSNWEAGNTFTCSVLHEGLHNHHTEKSLSHSPGK
light: not shown
notes: as for B1
Kd (mouse FcγRIII): 4260 nM
relative mFcγRIII-binding activity (mIgG1 = 1) (mouse FcγRIII): 0.09 fold
Kd (mouse FcγRII): 36.8 nM
relative mFcγRII-binding activity (mIgG1 = 1) (mouse FcγRII): 5 fold

B6: H237-MB758/MRAL-k0 (antibody, mouse IgG1, kappa)
heavy: QVQLQESGPGLVKPSETLSLTCAVSGHSISHDHAWSWVRQPPGEGLEWIGFISYSGITNYNPSLQGRVTISRDNSKNTLYLQMNSLRAEDTAVYYCARSLARTTAMDYWGEGTLVTVSSAKTTPPSVYPLAPGSAAQTNSMVTLGCLVKGYFPEPVTVTWNSGSLSSGVHTFPAVLQSDLYTLSSSVTVPSSTWPSETVTCNVAHPASSTKVDKKIVPRDCGCKPCICEPNEVELVFIFPPKPKDVLTITLTPKVTCVVVDISKDDPEVQFSWFVDDVEVHTAQTQPREEQFNMTFRSVSELPIMHQDWLNGKEFKCRVNSAAFPAPIERTISKTKGRPKAPQVYTIPPPKEQMAKDKVSLTCMITDFFPEDITVEWQWNGQPAENYKNTQPIMDTDGSYFVYSKLNVQKSNWEAGNTFTCSVLHEGLHNHHTEKSLSHSPGK
light: not shown
notes: as for B1
Kd (mouse FcγRIII): 2110 nM
relative mFcγRIII-binding activity (mIgG1 = 1) (mouse FcγRIII): 0.17 fold
Kd (mouse FcγRII): 21.5 nM
relative mFcγRII-binding activity (mIgG1 = 1) (mouse FcγRII): 8.57 fold

B7: H237-MB762/MRAL-k0 (antibody, mouse IgG1, kappa)
heavy: QVQLQESGPGLVKPSETLSLTCAVSGHSISHDHAWSWVRQPPGEGLEWIGFISYSGITNYNPSLQGRVTISRDNSKNTLYLQMNSLRAEDTAVYYCARSLARTTAMDYWGEGTLVTVSSAKTTPPSVYPLAPGSAAQTNSMVTLGCLVKGYFPEPVTVTWNSGSLSSGVHTFPAVLQSDLYTLSSSVTVPSSTWPSETVTCNVAHPASSTKVDKKIVPRDCGCKPCICEPNEVELVFIFPPKPKDVLTITLTPKVTCVVVDISKDDPEVQFSWFVDDVEVHTAQTQPREEQENSTFRSVSELPIMHQDWLNGKEFKCRVNSAAFPAPIEKTISKTKGRPKAPQVYTIPPPKEQMAKDKVSLTCMITDFFPEDITVEWQWNGQPAENYKNTQPIMDTDGSYFVYSKLNVQKSNWEAGNTFTCSVLHEGLHNHHTEKSLSHSPGK
light: not shown
notes: as for B1
Kd (mouse FcγRIII): 3220 nM
relative mFcγRIII-binding activity (mIgG1 = 1) (mouse FcγRIII): 0.12 fold
Kd (mouse FcγRII): 48.1 nM
relative mFcγRII-binding activity (mIgG1 = 1) (mouse FcγRII): 5.12 fold

B8: H237-MB763/MRAL-k0 (antibody, mouse IgG1, kappa)
heavy: QVQLQESGPGLVKPSETLSLTCAVSGHSISHDHAWSWVRQPPGEGLEWIGFISYSGITNYNPSLQGRVTISRDNSKNTLYLQMNSLRAEDTAVYYCARSLARTTAMDYWGEGTLVTVSSAKTTPPSVYPLAPGSAAQTNSMVTLGCLVKGYFPEPVTVTWNSGSLSSGVHTFPAVLQSDLYTLSSSVTVPSSTWPSETVTCNVAHPASSTKVDKKIVPRDCGCKPCICEPNEVELVFIFPPKPKDVLTITLTPKVTCVVVDISKDDPEVQFSWFVDDVEVHTAQTQPREEQNNSTFRSVSELPIMHQDWLNGKEFKCRVNSAAFPAPIEKTISKTKGRPKAPQVYTIPPPKEQMAKDKVSLTCMITDFFPEDITVEWQWNGQPAENYKNTQPIMDTDGSYFVYSKLNVQKSNWEAGNTFTCSVLHEGLHNHHTEKSLSHSPGK
light: not shown
notes: as for B1
Kd (mouse FcγRIII): 3970 nM
relative mFcγRIII-binding activity (mIgG1 = 1) (mouse FcγRIII): 0.1 fold
Kd (mouse FcγRII): 61.9 nM
relative mFcγRII-binding activity (mIgG1 = 1) (mouse FcγRII): 3.98 fold

B9: H237-MB757/MRAL-k0 (antibody, mouse IgG1, kappa)
heavy: QVQLQESGPGLVKPSETLSLTCAVSGHSISHDHAWSWVRQPPGEGLEWIGFISYSGITNYNPSLQGRVTISRDNSKNTLYLQMNSLRAEDTAVYYCARSLARTTAMDYWGEGTLVTVSSAKTTPPSVYPLAPGSAAQTNSMVTLGCLVKGYFPEPVTVTWNSGSLSSGVHTFPAVLQSDLYTLSSSVTVPSSTWPSETVTCNVAHPASSTKVDKKIVPRDCGCKPCICEPNEVELVFIFPPKPKDVLTITLTPKVTCVVVDISKDDPEVQFSWFVDDVEVHTAQTQPREEQFNMTFRSVSELPIMHQDWLNGKEFKCRVDSAAFPAPIEKTISKTKGRPKAPQVYTIPPPKEQMAKDKVSLTCMITDFFPEDITVEWQWNGQPAENYKNTQPIMDTDGSYFVYSKLNVQKSNWEAGNTFTCSVLHEGLHNHHTEKSLSHSPGK
light: not shown
notes: as for B1
Kd (mouse FcγRIII): 3230 nM
relative mFcγRIII-binding activity (mIgG1 = 1) (mouse FcγRIII): 0.11 fold
Kd (mouse FcγRII): 27.8 nM
relative mFcγRII-binding activity (mIgG1 = 1) (mouse FcγRII): 6.63 fold

B10: H237-MB764/MRAL-k0 (antibody, mouse IgG1, kappa)
heavy: QVQLQESGPGLVKPSETLSLTCAVSGHSISHDHAWSWVRQPPGEGLEWIGFISYSGITNYNPSLQGRVTISRDNSKNTLYLQMNSLRAEDTAVYYCARSLARTTAMDYWGEGTLVTVSSAKTTPPSVYPLAPGSAAQTNSMVTLGCLVKGYFPEPVTVTWNSGSLSSGVHTFPAVLQSDLYTLSSSVTVPSSTWPSETVTCNVAHPASSTKVDKKIVPRDCGCKPCICEPNEVELVFIFPPKPKDVLTITLTPKVTCVVVDISKDDPEVQFSWFVDDVEVHTAQTQPREEQTNSTFRSVSELPIMHQDWLNGKEFKCRVNSAAFPAPIEKTISKTKGRPKAPQVYTIPPPKEQMAKDKVSLTCMITDFFPEDITVEWQWNGQPAENYKNTQPIMDTDGSYFVYSKLNVQKSNWEAGNTFTCSVLHEGLHNHHTEKSLSHSPGK
light: not shown
notes: as for B1
Kd (mouse FcγRIII): 5150 nM
relative mFcγRIII-binding activity (mIgG1 = 1) (mouse FcγRIII): 0.08 fold
Kd (mouse FcγRII): 84.9 nM
relative mFcγRII-binding activity (mIgG1 = 1) (mouse FcγRII): 2.9 fold
